Measurements taken from patent US20130251640.

How the values were obtained:
[1] = tested on: T1, substrate a, Mca-Gly-Ser-Pro-Ala-Phe**Leu-Ala-Lys(Dnp)-DArg-CONH2
T1 sequence: GSPAFLAKR

[2] = tested on: T2, substrate b, Mca-Gly-Pro-Ile-Leu-Phe**Phe-Arg-Leu-Gly-Lys(Dnp)-DArg-CONH2
T2 sequence: GPILFFRLGKR

[3] = tested on: T3, substrate c, Mca-Gly-Pro-Ile-Leu-Phe**Phe-Arg-Leu-Lys(Dnp)-DArg-CONH2
T3 sequence: GPILFFRLKR

[4] = tested on: T4, substrate d, Mca-Ala-Gly-Phe-Ser-Leu**Gly-Pro-Lys(Dnp)-DArg-CONH2
T4 sequence: AGFSLGPKR

[5] = tested on: T5, substrate e, Mca-Ala-Gly-Phe-Ser-Leu**Pro-Ala-Lys(Dnp)-D-Arg-CONH2
T5 sequence: AGFSLPAKR

Substance	fluorescence intensity on hydrolysis (FRET substrate) [1]	fluorescence intensity on hydrolysis (FRET substrate) [2]	fluorescence intensity on hydrolysis (FRET substrate) [3]	fluorescence intensity on hydrolysis (FRET substrate) [4]	Kcat/Km [5]	fluorescence intensity on hydrolysis (FRET substrate) [5]	Kcat [5] [S^-1]	Km [5] [µM]	Vmax [5] [µM S^-1]
Cathepsin D (purchased from Calbiochem, EMD Bioscience)	such leading increase in fluorescence signal with Cath E was observed as well upon incubation with Cath D	Compared to substrate b, substrate c shows superior increase in the fluorescence intensity upon hydrolysis by both Cath E and Cath D	Compared to substrate b, substrate c shows superior increase in the fluorescence intensity upon hydrolysis by both Cath E and Cath D	both substrates d and e exhibited similar slow hydrolysis by Cath D	NM^a	both substrates d and e exhibited similar slow hydrolysis by Cath D			
Cathepsin E (purchased from Calbiochem, EMD Bioscience)	A prominent fluorescence increase of substrate a was observed instantaneously upon incubation with Cath E	Compared to substrate b, substrate c shows superior increase in the fluorescence intensity upon hydrolysis by both Cath E and Cath D	Compared to substrate b, substrate c shows superior increase in the fluorescence intensity upon hydrolysis by both Cath E and Cath D	substrate d showed relatively slow hydrolysis and did not reach saturation within the monitored period	16.7	substrate e was activated by Cath E quickly and reached saturation within 10 minutes	322	19.4	2.2
